For experiment [1], the target named is T1, rat B7-H4 on the cell surface (rat, UniProt Q501W4 25-257).
T1 construct: full-length, on transfected HEK293T cells
T1 sequence: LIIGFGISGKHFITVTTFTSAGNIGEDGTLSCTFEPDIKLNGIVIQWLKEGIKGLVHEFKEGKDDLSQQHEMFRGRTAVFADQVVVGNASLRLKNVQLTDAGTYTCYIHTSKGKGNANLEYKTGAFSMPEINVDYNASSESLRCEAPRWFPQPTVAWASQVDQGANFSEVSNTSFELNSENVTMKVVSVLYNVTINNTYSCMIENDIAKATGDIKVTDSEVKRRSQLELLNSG
The experiment in a line: flow cytometry, transfected 293 cells.
Protocol: (§1) Following incubation, cells were pelleted, washed and incubated with a secondary labeling antibody and samples were acquired on a flow cytometer. Data was analyzed using the FlowJo software and MFI was plotted vs. antibody concentration. The EC50 cell binding potency was calculated using nonlinear regression curve fit (GraphPad Prism).

The target in experiment [2] is T2, cynomolgus monkey B7-H4 on the cell surface (cynomolgus monkey, UniProt Q7Z7D3 25-282 (human entry)).
T2 construct: full-length, on transfected HEK293T cells
T2 chain: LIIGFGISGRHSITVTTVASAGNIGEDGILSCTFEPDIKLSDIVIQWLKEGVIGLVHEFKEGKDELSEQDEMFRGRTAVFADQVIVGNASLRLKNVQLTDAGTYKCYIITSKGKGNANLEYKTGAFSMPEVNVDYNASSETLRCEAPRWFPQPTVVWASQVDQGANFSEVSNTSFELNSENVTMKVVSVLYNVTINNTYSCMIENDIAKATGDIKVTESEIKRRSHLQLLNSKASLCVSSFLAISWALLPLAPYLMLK
Kind of experiment: flow cytometry, transfected 293 cells. For orientation: A flow cytometer gives signals particle by particle.
Protocol: as §1

The target of experiment [3] is T3, mouse B7-H4 on the cell surface (mouse, UniProt Q7TSP5 25-257).
T3 construct: full-length, on transfected HEK293T cells
T3 sequence: T1 sequence with H109R, E228Q
Kind of experiment: flow cytometry, transfected 293 cells.
Protocol: as §1

For experiment [4], the target named is T4, human B7-H4 on the cell surface (human, UniProt Q7Z7D3 25-282).
T4 sequence: T2 chain with I53L, L242F, A252S
The experiment in a line: cell-based or functional assay.

The target of experiment [5] is T4, human B7-H4 on the cell surface. Kind of experiment: flow cytometry, SK-BR-3 cells.
Protocol: as §1
For experiment [6], the target named is T2, cynomolgus monkey B7-H4 on the cell …. The experiment in a line: flow cytometry, 100 nM, transfected HEK293T.
Protocol: (§2) HEK293T cell lines were transfected to express full-length human, cynomolgus monkey, mouse, or rat B7-H4. In addition, the endogenous human B7-H4 expressing SK-BR-3 breast cancer cell line was used to assess the ability of the antibodies to bind B7-H4 expressed on the cell surface. 1×10⁵ parental HEK293T or transfected HEK293T cell lines were incubated with 100 nM of the B7-H4 antibodies. Following incubation, cells were pelleted, washed, and incubated with a secondary labeling antibody, and samples were acquired on a flow cytometer. Fold binding over the parental cell line (FOP) was calculated as follows: MFI transfected HKE293T cells/MFI parental HEK293T cells.
Experiment [7] addresses T4, human B7-H4 on the cell surface. The experiment in a line: flow cytometry, 100 nM, transfected HEK293T.
Protocol: as §2
Experiment [8] concerns the target T3, mouse B7-H4 on the cell surface. Kind of experiment: flow cytometry, 100 nM, transfected HEK293T.
Protocol: as §2
The target of experiment [9] is T5, recombinant human B7-H4-huIgG1 (human).
T5 construct: also called B7-H4-extracellular domain (ECD)
The experiment in a line: BLI, antigen on Protein A tips.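 Also: Anti-B7-H4 antibodies assessed for affinity toward the B7-H4 extracellular domain using biolayer interferometry.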 A general note: In BLI a coated tip is dipped into the sample, and binding shifts an interference pattern.
Protocol: (§3) Binding affinities of anti-B7-H4 antibodies to B7-H4-extracellular domain (ECD) were determined by biolayer interferometry (BLI). […] Anti-B7-H4 antibodies were then evaluated for binding.

Experiment [10] concerns the target T6, cynomolgus monkey B7-H4 (recombinant, BLI) (cynomolgus monkey, UniProt Q7Z7D3 25-259 (human entry)).
T6 construct: also called Cynomolgus B7-H4
T6 sequence: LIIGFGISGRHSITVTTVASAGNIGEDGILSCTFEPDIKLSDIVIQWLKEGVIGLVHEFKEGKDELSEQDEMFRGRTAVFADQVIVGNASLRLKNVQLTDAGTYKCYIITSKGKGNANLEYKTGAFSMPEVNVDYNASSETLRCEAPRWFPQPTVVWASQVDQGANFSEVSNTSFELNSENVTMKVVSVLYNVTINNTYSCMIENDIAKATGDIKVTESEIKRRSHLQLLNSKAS
Kind of experiment: BLI, antigen on Protein A tips.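 Also: Anti-B7-H4 antibodies assessed for affinity toward the B7-H4 extracellular domain using biolayer interferometry.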
Protocol: as §3

Experiment [11] concerns the target T7, mouse B7-H4 (recombinant, BLI) (mouse, UniProt Q7TSP5 29-256, limits assumed).
T7 construct: also called murine B7-H4
T7 sequence: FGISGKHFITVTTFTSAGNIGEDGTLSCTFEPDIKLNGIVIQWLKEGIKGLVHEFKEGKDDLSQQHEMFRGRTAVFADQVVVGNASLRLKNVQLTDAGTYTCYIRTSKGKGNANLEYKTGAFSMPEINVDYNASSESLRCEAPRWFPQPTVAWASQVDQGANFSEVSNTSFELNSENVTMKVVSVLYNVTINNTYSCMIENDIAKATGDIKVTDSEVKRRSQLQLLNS
Kind of experiment: BLI, antigen on Protein A tips.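 Also: Anti-B7-H4 antibodies assessed for affinity toward the B7-H4 extracellular domain using biolayer interferometry.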
Protocol: as §3

Experiment [12] concerns the target T8, B7-H4 IgV-huIgG1 (human).
T8 construct: also called N-terminal domain of human B7-H4
The experiment in a line: SPR, antibody captured by anti-human Fab, antigen in flow.
Protocol: Briefly, anti-human Fab antibody was immobilized on a carboxyl-derivatized SPR chip surface, and anti-B7-H4 antibodies were captured on the resulting surface at 5 ug/ml for 30 seconds.

Experiment [13] addresses T4, human B7-H4 on the cell surface. Kind of experiment: cell-based or functional assay. The source holds these as a separate data set.

Numbering of substitutions follows the chain as printed. Read-outs that look alike come from different tables or passages of the source.

B1: B7-H4 antibody 20500 (antibody, human IgG1, kappa, V domains shown)
VH: QLQLQESGPGLVKPSETLSLTCTVSGGSIKSGSHYWGWIRQPPGKGLEWIGNIYYSGSTYYNPSLRSRVTISVDTSKNQFSLKLSSVTAADTAVYYCAREGSYPNWFDPWGQGTLVTVSS
VL: EIVMTQSPATLSVSPGERATLSCRASQSVSSNLAWYQQKPGQAPRLLIYGASTRATGIPARFSGSGSGTEFTLTISSLQSEDFAVYYCQQYHSFPFTFGGGTKVEIKR
notes: human IgG1/kappa
By EC50 is commonly meant the midpoint of the concentration-response curve. Usually Kd stands for the concentration at which binding is half-saturated. In general, koff refers to a measure of how fast the partners let go of each other. One may read the kon as the second-order rate constant of association. B1: the EC50 amounted to 1.14 nM in experiment [1], 3.38 nM in [2], 4 nM in experiment [3] and 1.54 nM in [5]. For the same molecule, the “Donor 1 Max IFNγ” value in [4] was determined as 821 pg/mL. Besides, the “Donor 2 Max IFNγ” value in experiment [4] came to 274 pg/mL. Also, the “Donor 3 Max IFNγ” value in experiment [4] was found to be 118 pg/mL. Also, in experiment [4], the “Donor 4 Max IFNγ” value worked out at 4030 pg/mL. Further, the “aAPC Assay EC50 (IFNγ production)” value in experiment [4] stood at 0.84 nM. For the same molecule, the “FOP (fold binding over the parental cell line)” value was determined as 630 fold in experiment [6], 182 fold in experiment [7] and 478 fold in experiment [8]. Moreover, the Kd in [9] was found to be 5.97 nM; in experiment [10], 5.47 nM; in experiment [11], 8.25 nM. Besides, the koff turned out to be 0.00233 s⁻¹ in [9], 0.00229 s⁻¹ in experiment [10] and 0.00336 s⁻¹ in experiment [11]. Further, the kon in experiment [9] is 391000 M⁻¹ s⁻¹; in experiment [10], 418000 M⁻¹ s⁻¹; in experiment [11], 408000 M⁻¹ s⁻¹.

B2: B7-H4 antibody 20501 (antibody, human IgG1, kappa, V domains shown)
VH: B1 VH with R66K, F107L
VL: B1 VL
notes: human IgG1/kappa
As to B2, the EC50 in [1] was found to be 1.15 nM; in experiment [2], 3.89 nM; in experiment [3] it was 4.67 nM; in [5], 1.9 nM. Besides, the “Donor 1 Max IFNγ” value in experiment [4] worked out at 850 pg/mL. Moreover, in [4], the “Donor 2 Max IFNγ” value came to 310 pg/mL. Also, the “Donor 3 Max IFNγ” value in [4] turned out to be 136 pg/mL. For the same molecule, the “Donor 4 Max IFNγ” value in [4] was 4490 pg/mL. In addition, the “aAPC Assay EC50 (IFNγ production)” value in [4] was 0.79 nM. Also, the “FOP (fold binding over the parental cell line)” value in experiment [6] was 728 fold; in [7], 205 fold; in experiment [8] it was 546 fold. Moreover, the Kd was determined as 2.56 nM in experiment [9], 2.42 nM in experiment [10] and 3.35 nM in experiment [11]. For the same molecule, the values for the koff in [9], in experiment [10] and in experiment [11] were 0.00251 s⁻¹, 0.00246 s⁻¹ and 0.00375 s⁻¹, respectively. For the same molecule, the kon in experiment [9] was 980000 M⁻¹ s⁻¹; in experiment [10] it was 1.02e+06 M⁻¹ s⁻¹; in experiment [11], 1.12e+06 M⁻¹ s⁻¹.

B3: B7-H4 antibody 15461 (antibody, human IgG1, kappa, V domains shown)
VH: B1 VH with K30S, G32S, H34Y, R66K
VL: B1 VL
notes: human IgG1/kappa
On to B3, for which the EC50 worked out at 1.67 nM in experiment [1], 6.77 nM in experiment [2], 6.37 nM in experiment [3] and 5.66 nM in experiment [5]. Moreover, the dissociation constant Kd stood at 30.4 nM in [12], 62.9 nM in experiment [9], 62.1 nM in experiment [10] and 55.7 nM in [11]. Moreover, the koff in experiment [12] came out at 0.00519 s⁻¹; in experiment [9], 0.024 s⁻¹; in experiment [10] it was 0.027 s⁻¹; in experiment [11], 0.017 s⁻¹. Also, the kon in [12] came to 171000 M⁻¹ s⁻¹; in experiment [9], 381000 M⁻¹ s⁻¹; in [10], 434000 M⁻¹ s⁻¹; in experiment [11], 305000 M⁻¹ s⁻¹. Besides, the “Donor 1 Max IFNγ” value in experiment [13] was found to be 312 pg/mL. Besides, in [13], the “Donor 2 Max IFNγ” value stood at 165 pg/mL. Also, in experiment [13], the “Donor 3 Max IFNγ” value is 1960 pg/mL. For the same molecule, the “Donor 4 Max IFNγ” value in [13] was 987 pg/mL. For the same molecule, in experiment [13], the “aAPC Assay EC50 (IFNγ production)” value was found to be 531 nM. Moreover, the results for the “FOP (fold binding over the parental cell line)” value in experiment [6], in [7] and in experiment [8] were 610 fold, 333 fold and 887 fold, respectively.

B4: B7-H4 antibody 20502.1 (antibody, human IgG1, kappa, V domains shown)
VH: B1 VH with H34Y, R66K, W106Q, T114I
VL: B1 VL
notes: human IgG1/kappa
Take B4: the EC50 is 1.26 nM in experiment [1], 4.94 nM in [2], 5.57 nM in experiment [3] and 2.5 nM in [5]. Further, the “Donor 1 Max IFNγ” value in experiment [4] is 937 pg/mL. Also, in experiment [4], the “Donor 2 Max IFNγ” value is 304 pg/mL. Besides, in experiment [4], the “Donor 3 Max IFNγ” value turned out to be 174 pg/mL. The “Donor 4 Max IFNγ” value in experiment [4] came to 4270 pg/mL. In addition, the “aAPC Assay EC50 (IFNγ production)” value in experiment [4] turned out to be 0.79 nM. Also, the “FOP (fold binding over the parental cell line)” value in experiment [6] came out at 683 fold; in experiment [7], 200 fold; in experiment [8] it was 559 fold. The Kd in [9] worked out at 3.07 nM; in experiment [10], 2.64 nM; in experiment [11], 3.99 nM. The koff came to 0.0015 s⁻¹ in experiment [9], 0.00139 s⁻¹ in experiment [10] and 0.00207 s⁻¹ in experiment [11]. The kon in [9] came out at 487000 M⁻¹ s⁻¹; in experiment [10], 528000 M⁻¹ s⁻¹; in [11], 520000 M⁻¹ s⁻¹.

B5: B7-H4 antibody 20496 (antibody, human IgG1, kappa, V domains shown)
VH: QLQLQESGPGLVKPSETLSLTCTVSGGSISSSVYYWSWIRQPPGKGLEWIGSILVSGSTYYNPSLKSRVTISVDTSKNQFSLKLSSVTAADTAVYYCARAVSFLDVWGQGTMVIVSS
VL: DIQMTQSPSSLSASVGDRVTITCRASQSISSYLNWYQQKPGKAPKLLIYGASSLQSGVPSRFSGSGSGTDFTLTISSLQPEDFATYYCQQSYDPPWTFGGGTKVEIKR
notes: human IgG1/kappa
With B5, the half-maximal effective concentration (EC50) in experiment [2] was 7.91 nM; in experiment [3], 6.7 nM; in experiment [5], 7.6 nM. In experiment [4], the “Donor 1 Max IFNγ” value came to 186 pg/mL. In addition, the “FOP (fold binding over the parental cell line)” value in [6] was determined as 758 fold; in [7], 179 fold; in experiment [8], 604 fold. The equilibrium dissociation constant (Kd) in experiment [9] was found to be 0.805 nM; in experiment [10], 0.721 nM; in experiment [11] it was 24.6 nM. The koff came out at 0.000555 s⁻¹ in experiment [9], 0.000569 s⁻¹ in experiment [10] and 0.0171 s⁻¹ in experiment [11]. Moreover, the on-rate (kon) in [9] is 689000 M⁻¹ s⁻¹; in experiment [10], 790000 M⁻¹ s⁻¹; in experiment [11], 692000 M⁻¹ s⁻¹.

B6: B7-H4 antibody 15472 (antibody, human IgG1, kappa, V domains shown)
VH: EVQLLESGGGLVQPGGSLRLSCAASGFTFSSYAMSWVRQAPGKGLEWVSTISGSGGSTYYADSVKGRFTISRDNSKNTLYLQMNSLRAEDTAVYYCARGAGHYDLVGRYWGQGTLVTVSS
VL: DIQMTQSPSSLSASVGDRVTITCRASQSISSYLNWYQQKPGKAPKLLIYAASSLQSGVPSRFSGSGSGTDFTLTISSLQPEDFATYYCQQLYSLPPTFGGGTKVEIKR
notes: human IgG1/kappa
For B6, the midpoint of the response in experiment [5], the EC50, lay at 8.86 nM. Also, the “FOP (fold binding over the parental cell line)” value in [6] is 1280 fold; in [7] it was 580 fold; in [8], 685 fold. In addition, the figures for the Kd in experiment [9], in [10] and in [11] were 7.11 nM, 7.8 nM and 38 nM, respectively. Besides, the koff in [9] is 0.00497 s⁻¹; in experiment [10], 0.00582 s⁻¹; in experiment [11] it was 0.016 s⁻¹. Further, the values for the kon in experiment [9], in experiment [10] and in experiment [11] were 700000 M⁻¹ s⁻¹, 746000 M⁻¹ s⁻¹ and 422000 M⁻¹ s⁻¹, respectively.
